In the supplement of paper PMC10724198:
± gives the standard deviation of the averaged measurements.

What was measured:
Saccharomyces cerevisiae [1] = assay: protein stability index of tFT-peptide fusion (C-terminal peptide) (PSI (0-1 scale)); higher = more stable (slower turnover); settings: genetic background: wild type; temperature: 30 C
Saccharomyces cerevisiae [2] = assay: as above
Method: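 MPS profiling in S. cerevisiae of the tFT-X12 degron library: putative degron peptides plus stable controls, 12 aa, fused to the C-terminus of a sfGFP-mCherry timer. Cells are FACS-sorted into 8 mCherry/sfGFP bins and deep-sequenced. PSI runs from 0 (unstable) to 1 (stable). Backgrounds are wild type, das1Δ and doa10Δ at 30 °C, and wild type, das1Δ, cdc34-1 and cdc53-1 at 37 °C; 2-3 technical replicates each.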

[3] = genetic background: cdc34-1, temperature: 37 C
[4] = genetic background: cdc53-1, temperature: 37 C
[5] = genetic background: das1 deletion, temperature: 30 C
[6] = genetic background: das1 deletion, temperature: 37 C
[7] = genetic background: doa10 deletion, temperature: 30 C
[8] = genetic background: wild type, temperature: 30 C
[9] = genetic background: wild type, temperature: 37 C
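Also: PSI is a weighted mean of sequencing reads over stability bins, variants kept only with over 10 reads, mCherry proximal and sfGFP distal, peptide attached via GGGS linker.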

Sequence | protein stability index (Saccharomyces cerevisiae [1]) | protein stability index (Saccharomyces cerevisiae [2]; [3]) | protein stability index (Saccharomyces cerevisiae [2]; [4]) | protein stability index (Saccharomyces cerevisiae [2]; [5]) | protein stability index (Saccharomyces cerevisiae [2]; [6]) | protein stability index (Saccharomyces cerevisiae [2]; [7]) | protein stability index (Saccharomyces cerevisiae [2]; [8]) | protein stability index (Saccharomyces cerevisiae [2]; [9])
VFFLLSVYMVMM | 0.307 ± 0.065 | 0.145 ± 0.018 | 0.29 ± 0.075 | 0.195 ± 0.055 | 0.3338 ± 0.0028 | 0.182 ± 0.03 | 0.184 ± 0.015 | 0.32 ± 0.02
VFFTSLPPLLRA | 0.458 ± 0.0096 | 0.433 ± 0.015 | 0.4543 ± 0.0034 | 0.372 ± 0.021 | 0.51 ± 0.01 | 0.341 ± 0.006 | 0.37 ± 0.032 | 0.486 ± 0.013
VFIVVEFRLSLY | 0.231 ± 0.073 | 0.122 ± 0.019 | 0.243 ± 0.074 | 0.174 ± 0.038 | 0.3023 ± 0.0029 | 0.1496 ± 0.0014 | 0.17 ± 0.0089 | 0.263 ± 0.0037
VFKLGWVLCVLL | 0.208 ± 0.024 | 0.286 ± 0.027 | 0.386 ± 0.0098 | 0.286 ± 0.01 | 0.389 ± 0.011 | 0.152 ± 0.0011 | 0.165 ± 0.0049 | 0.3 ± 0.0072
VFLACSMTGGDA | 0.331 ± 0.022 | 0.256 ± 0.029 | 0.326 ± 0.022 | 0.373 ± 0.067 | 0.27 ± 0.0086 | 0.413 ± 0.021 | 0.36 ± 0.049 | 0.264 ± 0.016
VFLDCCLRVFVD | 0.312 ± 0.011 | 0.252 ± 0.016 | 0.379 ± 0.028 | 0.228 ± 0.032 | 0.424 ± 0.014 | 0.188 ± 0.014 | 0.222 ± 0.023 | 0.389 ± 0.012
VFLLFFFGLFVF | 0.415 ± 0.041 | 0.348 ± 0.02 | 0.385 ± 0.0091 | 0.295 ± 0.037 | 0.418 ± 0.025 | 0.356 ± 0.043 | 0.314 ± 0.007 | 0.414 ± 0.035
VFLPVMVFFTFS | 0.4 ± 0.013 | 0.337 ± 0.013 | 0.457 ± 0.066 | 0.277 ± 0.03 | 0.49592 ± 0.00031 | 0.255 ± 0.0082 | 0.282 ± 0.016 | 0.469 ± 0.016
VFRLLLFFVFVF | 0.37 ± 0.0056 | 0.266 ± 0.017 | 0.183 ± 0.068 | 0.287 ± 0.046 | 0.3848 ± 0.0031 | 0.279 ± 0.0075 | 0.236 ± 0.034 | 0.354 ± 0.015
VGAVGVCILFVW | 0.35 ± 0.038 | 0.203 ± 0.0086 | 0.356 ± 0.014 | 0.242 ± 0.044 | 0.424 ± 0.0061 | 0.195 ± 0.016 | 0.232 ± 0.042 | 0.43 ± 0.013
VGFYGRWVCVAC | 0.29 ± 0.04 | 0.366 ± 0.053 | 0.462 ± 0.024 | 0.287 ± 0.015 | 0.435 ± 0.0074 | 0.236 ± 0.011 | 0.265 ± 0.019 | 0.384 ± 0.0068
VGGSRGARLGVG | 0.386 ± 0.014 | 0.352 ± 0.012 | 0.448 ± 0.014 | 0.389 ± 0.011 | 0.426 ± 0.0085 | 0.3945 ± 0.00071 | 0.384 ± 0.01 | 0.42 ± 0.021
VGRANLSVIRKV | 0.436 ± 0.013 | 0.632 ± 0.016 | 0.733 ± 0.016 | 0.636 ± 0.014 | 0.715 ± 0.019 | 0.243 ± 0.011 | 0.29 ± 0.024 | 0.588 ± 0.013
VGSSSGRLLYLC | 0.481 ± 0.0082 | 0.595 ± 0.007 | 0.73 ± 0.0093 | 0.633 ± 0.0066 | 0.7466 ± 0.0065 | 0.2656 ± 0.002 | 0.302 ± 0.022 | 0.43 ± 0.0049
VGTIVLTCIEVN | 0.279 ± 0.017 | 0.0595 ± 0.022 | 0.0586 ± 0.013 | 0.191 ± 0.022 | 0.22 ± 0.0081 | 0.1519 ± 0.00081 | 0.187 ± 0.011 | 0.205 ± 0.0017
VGVVLWVWGLGD | 0.446 ± 0.035 | 0.533 ± 0.026 | 0.6012 ± 0.0037 | 0.409 ± 0.033 | 0.636 ± 0.022 | 0.423 ± 0.0063 | 0.426 ± 0.032 | 0.61 ± 0.03
VGVVVVGDVLVW | 0.424 ± 0.046 | 0.286 ± 0.071 | 0.375 ± 0.02 | 0.279 ± 0.03 | 0.423 ± 0.0065 | 0.2321 ± 0.0019 | 0.26 ± 0.025 | 0.402 ± 0.0091
VIQNKKKNKITS | 0.372 ± 0.027 | 0.599 ± 0.048 | 0.6883 ± 0.0049 | 0.642 ± 0.013 | 0.736 ± 0.0094 | 0.177 ± 0.021 | 0.168 ± 0.015 | 0.284 ± 0.018
VIYYVRVGLVLS | 0.203 ± 0.025 | 0.0324 ± 0.0007 | 0.115 ± 0.053 | 0.119 ± 0.03 | 0.167 ± 0.0084 | 0.108 ± 0.016 | 0.117 ± 0.045 | 0.126 ± 0.016
VLARGFHCMYFC | 0.484 ± 0.048 | 0.68 ± 0.025 | 0.736 ± 0.022 | 0.621 ± 0.022 | 0.75484 ± 0.00037 | 0.444 ± 0.022 | 0.447 ± 0.021 | 0.623 ± 0.02
